Values quoted from earlier work, collected in publication PMC4351059.

Target: Cys215 (UniProt position 215, PVVVHCSAGIG)
Conditions: not stated (reduced free enzyme implied)

Question: With “Protein-tyrosine phosphatase 1B (PTP1B) (Homo sapiens (as described in this article; the cited source title says 'mammalian protein-tyrosine-phosphatase PTP1'))” as the substance, how does the pKa read?
Answer: 5.6
